{"source": "paper PMC11513889", "proteins": {"B1": {"name": "mARC1 (Homo sapiens) (protein)", "chain": "GAAGSSALARFVLLAQSRPGWLGVAALGLTAVALGAVAWRRAWPTRRRRLLQQVGTVAQLWIYPVKSCKGVPVSEAECTAMGLRSGNLRDRFWLVINQEGNMVTARQEPRLVLISLTCDGDTLTLSAAYTKDLLLPIKTPTTNAVHKCRVHGLEIEGRDCGEATAQWITSFLKSQPYRLVHFEPHMRPRRPHQIADLFRPKDQIAYSDTSPFLILSEASLADLNSRLEKKVKATNFRPNIVISGCDVYAEDSWDELLIGDVELKRVMACSRCILTTVDPDTGVMSRKEPLETLKSYRQCDPSERKLYGKSPLFGQYFVLENPGTIKVGDPVYLLGQ"}}, "substrate": "NC(=O)NO", "test": "purified protein", "conditions": "1 mM NADH, NB5R3, CYB5B, 20 mM MES pH 6.0, 37 °C", "data": [{"protein": "B1", "values": [{"measurement": "Km", "result": 7, "unit": "mM"}]}]}
